Article PMC8616027

Columns and labels:
[1] = tested on: HU (HU-1/HU-2, hupA + hupB co-expressed) (Escherichia coli); assay: EMSA; details: 10 min at 23 C, then 0.8% agarose gel electrophoresis, bound [3H]HU counted in gel slices; binding buffer composition, salt and pH not in the material …; scale: HU dimers bound per plasmid at saturation
[2] = tested on: HU (HU-1/HU-2, hupA + hupB co-expressed) (Escherichia coli); assay: competition; details: 10 min at 23 C, then 0.8% agarose gel electrophoresis, bound [3H]HU counted in gel slices; binding buffer composition, salt and pH not in the material …

Substance	binding signal [1]	binding signal (fold affinity over linear DNA) [2]	binding signal (fold affinity over relaxed DNA) [2]	binding signal (fold affinity over relaxed pRLM4) [2]
linear pRLM4	1000	–	–	–
negatively supercoiled pRLM4 (sigma -0.06)	1000	20	> 10	2
